Data reported in the Human Domainome abundance scans (Beltran et al. 2025).
± gives the uncertainty stated by the source.

B1: Steroid hormone receptor ERR2, residues 100 to 176; numbered along this chain, O95718 (parent)
chain: KRLCLVCGDIASGYHYGVASCEACKAFFKRTIQGNIEYSCPATNECEITKRRRKSCQACRFMKCLKVGMLKEGVRLD

Variants of: B1
Assay: abundance fitness (aPCA) (normalised: wild type 0, dead -1); higher = more abundant; growth selection in yeast, the domain comes from the species named
Conditions: Homo sapiens

Variant | abundance fitness
KRLCLVAGDIASGYHYGVASCEACKAFFKRTIQGNIEYSCPATNECEITKRRRKSCQACRFMKCLKVGMLKEGVRLD [C7A] | -0.775 ± 0.11
KRLCLVDGDIASGYHYGVASCEACKAFFKRTIQGNIEYSCPATNECEITKRRRKSCQACRFMKCLKVGMLKEGVRLD [C7D] | -0.602 ± 0.12
KRLCLVEGDIASGYHYGVASCEACKAFFKRTIQGNIEYSCPATNECEITKRRRKSCQACRFMKCLKVGMLKEGVRLD [C7E] | -0.874 ± 0.13
KRLCLVFGDIASGYHYGVASCEACKAFFKRTIQGNIEYSCPATNECEITKRRRKSCQACRFMKCLKVGMLKEGVRLD [C7F] | -0.362 ± 0.12
KRLCLVGGDIASGYHYGVASCEACKAFFKRTIQGNIEYSCPATNECEITKRRRKSCQACRFMKCLKVGMLKEGVRLD [C7G] | -0.96 ± 0.11
KRLCLVHGDIASGYHYGVASCEACKAFFKRTIQGNIEYSCPATNECEITKRRRKSCQACRFMKCLKVGMLKEGVRLD [C7H] | -1 ± 0.28
KRLCLVIGDIASGYHYGVASCEACKAFFKRTIQGNIEYSCPATNECEITKRRRKSCQACRFMKCLKVGMLKEGVRLD [C7I] | -1.05 ± 0.25
KRLCLVKGDIASGYHYGVASCEACKAFFKRTIQGNIEYSCPATNECEITKRRRKSCQACRFMKCLKVGMLKEGVRLD [C7K] | -1.19 ± 0.23
KRLCLVLGDIASGYHYGVASCEACKAFFKRTIQGNIEYSCPATNECEITKRRRKSCQACRFMKCLKVGMLKEGVRLD [C7L] | -1.17 ± 0.17
KRLCLVNGDIASGYHYGVASCEACKAFFKRTIQGNIEYSCPATNECEITKRRRKSCQACRFMKCLKVGMLKEGVRLD [C7N] | -0.635 ± 0.19
KRLCLVPGDIASGYHYGVASCEACKAFFKRTIQGNIEYSCPATNECEITKRRRKSCQACRFMKCLKVGMLKEGVRLD [C7P] | -0.673 ± 0.14
KRLCLVQGDIASGYHYGVASCEACKAFFKRTIQGNIEYSCPATNECEITKRRRKSCQACRFMKCLKVGMLKEGVRLD [C7Q] | -0.918 ± 0.16
KRLCLVRGDIASGYHYGVASCEACKAFFKRTIQGNIEYSCPATNECEITKRRRKSCQACRFMKCLKVGMLKEGVRLD [C7R] | -0.586 ± 0.069
KRLCLVSGDIASGYHYGVASCEACKAFFKRTIQGNIEYSCPATNECEITKRRRKSCQACRFMKCLKVGMLKEGVRLD [C7S] | -0.726 ± 0.097
KRLCLVVGDIASGYHYGVASCEACKAFFKRTIQGNIEYSCPATNECEITKRRRKSCQACRFMKCLKVGMLKEGVRLD [C7V] | -0.976 ± 0.12
KRLCLVWGDIASGYHYGVASCEACKAFFKRTIQGNIEYSCPATNECEITKRRRKSCQACRFMKCLKVGMLKEGVRLD [C7W] | -1.22 ± 0.28
KRLCLVYGDIASGYHYGVASCEACKAFFKRTIQGNIEYSCPATNECEITKRRRKSCQACRFMKCLKVGMLKEGVRLD [C7Y] | -0.993 ± 0.32
KRLCLVCADIASGYHYGVASCEACKAFFKRTIQGNIEYSCPATNECEITKRRRKSCQACRFMKCLKVGMLKEGVRLD [G8A] | -0.101 ± 0.055

Variant | abundance fitness
KRLCLVCCDIASGYHYGVASCEACKAFFKRTIQGNIEYSCPATNECEITKRRRKSCQACRFMKCLKVGMLKEGVRLD [G8C] | -0.381 ± 0.1
KRLCLVCDDIASGYHYGVASCEACKAFFKRTIQGNIEYSCPATNECEITKRRRKSCQACRFMKCLKVGMLKEGVRLD [G8D] | -0.096 ± 0.092
KRLCLVCEDIASGYHYGVASCEACKAFFKRTIQGNIEYSCPATNECEITKRRRKSCQACRFMKCLKVGMLKEGVRLD [G8E] | 0.006 ± 0.06
KRLCLVCFDIASGYHYGVASCEACKAFFKRTIQGNIEYSCPATNECEITKRRRKSCQACRFMKCLKVGMLKEGVRLD [G8F] | -0.274 ± 0.15
KRLCLVCHDIASGYHYGVASCEACKAFFKRTIQGNIEYSCPATNECEITKRRRKSCQACRFMKCLKVGMLKEGVRLD [G8H] | -0.102 ± 0.1
KRLCLVCIDIASGYHYGVASCEACKAFFKRTIQGNIEYSCPATNECEITKRRRKSCQACRFMKCLKVGMLKEGVRLD [G8I] | -0.636 ± 0.3
KRLCLVCLDIASGYHYGVASCEACKAFFKRTIQGNIEYSCPATNECEITKRRRKSCQACRFMKCLKVGMLKEGVRLD [G8L] | -0.091 ± 0.046
KRLCLVCMDIASGYHYGVASCEACKAFFKRTIQGNIEYSCPATNECEITKRRRKSCQACRFMKCLKVGMLKEGVRLD [G8M] | -0.201 ± 0.071
KRLCLVCNDIASGYHYGVASCEACKAFFKRTIQGNIEYSCPATNECEITKRRRKSCQACRFMKCLKVGMLKEGVRLD [G8N] | -0.758 ± 0.18
KRLCLVCPDIASGYHYGVASCEACKAFFKRTIQGNIEYSCPATNECEITKRRRKSCQACRFMKCLKVGMLKEGVRLD [G8P] | -0.725 ± 0.16
KRLCLVCQDIASGYHYGVASCEACKAFFKRTIQGNIEYSCPATNECEITKRRRKSCQACRFMKCLKVGMLKEGVRLD [G8Q] | 0.086 ± 0.058
KRLCLVCSDIASGYHYGVASCEACKAFFKRTIQGNIEYSCPATNECEITKRRRKSCQACRFMKCLKVGMLKEGVRLD [G8S] | -0.117 ± 0.052
KRLCLVCTDIASGYHYGVASCEACKAFFKRTIQGNIEYSCPATNECEITKRRRKSCQACRFMKCLKVGMLKEGVRLD [G8T] | -0.077 ± 0.061
KRLCLVCVDIASGYHYGVASCEACKAFFKRTIQGNIEYSCPATNECEITKRRRKSCQACRFMKCLKVGMLKEGVRLD [G8V] | -1.11 ± 0.17
KRLCLVCWDIASGYHYGVASCEACKAFFKRTIQGNIEYSCPATNECEITKRRRKSCQACRFMKCLKVGMLKEGVRLD [G8W] | -0.374 ± 0.071
KRLCLVCYDIASGYHYGVASCEACKAFFKRTIQGNIEYSCPATNECEITKRRRKSCQACRFMKCLKVGMLKEGVRLD [G8Y] | -0.132 ± 0.12
KRLCLVCGCIASGYHYGVASCEACKAFFKRTIQGNIEYSCPATNECEITKRRRKSCQACRFMKCLKVGMLKEGVRLD [D9C] | -0.829 ± 0.22
KRLCLVCGFIASGYHYGVASCEACKAFFKRTIQGNIEYSCPATNECEITKRRRKSCQACRFMKCLKVGMLKEGVRLD [D9F] | -0.492 ± 0.14
